From article PMC10001230, “A Role for the V0 Sector of the V-ATPase in Neuroexocytosis: Exogenous V0d Blocks Complexin and SNARE Interactions with V0c” (Cells, 2023)

B1: His6-T7-HSV tagged full-length V0c-subunit (natural protein, rat, UniProt P63081 1-155, looked up)
chain: MADIKNNPEYSSFFGVMGASSAMVFSAMGAAYGTAKSGTGIAAMSVMRPELIMKSIIPVVMAGIIAIYGLVVAVLIANSLTDGITLYRSFLQLGAGLSVGLSGLAAGFAIGIVGDAGVRGTAQQPRLFVGMILILIFAEVLGLYGLIVALILSTK
notes: V-ATPase V0 sector subunit c (V0c), full length; also called HSV-V0c; 6His-V0c; source: E. coli OverExpress C43(DE3), membranes solubilized in 2% FosCholine-12, purified (Ni-NTA)
B2: Full-length V0c-L3.4s mutant (V0c with scrambled loop 3.4) (natural protein, rat, UniProt P63081 1-155, looked up)
chain: MADIKNNPEYSSFFGVMGASSAMVFSAMGAAYGTAKSGTGIAAMSVMRPELIMKSIIPVVMAGIIAIYGLVVAVLIANSLTDGITLYRSFLQLGAGLSVGLSGLAAGFAIGIVGDAGQATVQPLGRRFVGMILILIFAEVLGLYGLIVALILSTK
notes: Cloned in pET28 (EcoR1/Sal1); source: E. coli OverExpress C43(DE3), purified (Ni-NTA)
B4: Complexin1-GST (natural protein, rat, UniProt P63041 1-134, looked up)
chain: MEFVMKQALGGATKDMGKMLGGDEEKDPDAAKKEEERQEALRQAEEERKAKYAKMEAEREVMRQGIRDKYGIKKKEEREAEAQAAMEANSEGSLTRPKKAIPPGCGDEPEEEDESILDTVIKYLPGPLQDMFKK
notes: Legends call it GST-complexin although GST stands downstream of complexin in the construct; also called GST-complexin; immobilized complexin; source: E. coli BL21, purified; not shown: GST, C-terminal, kept

Columns and labels:
Conditions in all cases: both partners purified
GST-V0d1 [1] = molecular target: T1, GST-V0d1 (rat, UniProt Q5M7T6 1-351); assay: ELISA; V0c, VAMP2, t-SNARE, complexin, trimeric SNARE complex with or without complexin immobilized; GST-V0d1 or GST 50 nM; detected with anti-GST; GST binding subtracted
T1 construct: rat V-ATPase V0 sector subunit d1 (V0d1), amplified from an adult rat brain cDNA library and inserted EcoR1/Sal1 into pGEX-5x-1; the forward primer begins at the codon after the first methionine (SFFPEL), the reverse primer ends at the stop codon; also called immobilized V0d1; source: E. coli BL21, purified (Glutathione-Sepharose)
T1 sequence (Q5M7T6 entry or part of it): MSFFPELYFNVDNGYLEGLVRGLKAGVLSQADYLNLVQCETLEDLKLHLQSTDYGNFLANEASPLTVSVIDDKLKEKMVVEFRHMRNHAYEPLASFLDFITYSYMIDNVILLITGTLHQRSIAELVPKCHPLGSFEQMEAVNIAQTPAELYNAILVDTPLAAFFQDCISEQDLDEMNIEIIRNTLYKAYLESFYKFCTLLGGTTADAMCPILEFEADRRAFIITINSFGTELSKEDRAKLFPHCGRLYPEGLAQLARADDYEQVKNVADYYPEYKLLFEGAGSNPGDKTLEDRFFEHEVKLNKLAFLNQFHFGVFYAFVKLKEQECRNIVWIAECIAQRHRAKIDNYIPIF

GST-V0d1 [2] = molecular target: T1, GST-V0d1; assay: SPR; GST-V0d1 and GST amine-coupled on consecutive flow cells; V0c (50 nM, with or without 2 µM soluble GST-V0d1), V0c L1.2s or V0c L3.4s injected; 25 °C; GST signal subtracted
[3] = molecular target: B1; assay: ELISA; His-tagged complexin immobilized (1 µg/well); V0c 20 nM with or without VAMP2 100 nM, overnight 4 °C in 50 mM Tris-HCl pH 7.5, 150 mM NaCl, 3% BSA, 0.1% Triton X-100; detected with anti-HSV
[4] = molecular target: B1; assay: SPR; Complexin1-GST and GST amine-coupled on the chip; V0c, V0c L1.2s or V0c L3.4s 50 nM injected for 2 min; 25 °C, HBS with or without 0.2% CHAPS; GST signal subtracted
[5] = molecular target: B2; assay: as above
Complexin1-GST = molecular target: B4; assay: SPR; competition: V0c 100 nM preincubated or not with L1.2 or L3.4 peptides (10 µM) and injected on immobilized GST-complexin; 25 °C
GST-V0d1 [6] = molecular target: T1, GST-V0d1; assay: SPR; competition: V0c 50 nM injected over immobilized GST-V0d1 in the presence of an excess of GST or GST-complexin, or of L1.2 or L3.4 peptides; GST flow cell subtracted

B1: binds (GST-V0d1 [1]).

B2: binds (GST-V0d1 [2]).

B3: Complexin1-His (natural protein, rat, UniProt P63041 1-134, looked up)
chain: MEFVMKQALGGATKDMGKMLGGDEEKDPDAAKKEEERQEALRQAEEERKAKYAKMEAEREVMRQGIRDKYGIKKKEEREAEAQAAMEANSEGSLTRPKKAIPPGCGDEPEEEDESILDTVIKYLPGPLQDMFKK
notes: also called His-tagged complexin; source: E. coli BL21, purified
B3: binds [3].

B4: binds [4]; binds [5].

B5: V0c L1.2 peptide (aa 35-KSGTGIAAMSVMRPELIMKS-54) (peptide)
peptide: KSGTGIAAMSVMRPELIMKS
notes: V0c cytosolic loop 1.2; printed as aa 35-54; also called loop 1.2 peptide; free L1.2 peptide; source: synthetic peptide (Genecust)
B5: binds (Complexin1-GST); binds (GST-V0d1 [6]).
